These results are taken from US20070020627.

Data set [1] deals with E2x (6-finger) (artificial). The following applies: stated as Km; assay not described.
The subject of data set [2] is SKD-E2c (6-finger) (artificial). The data set can be described thus: cell_activity. The following applies: HeLa luciferase.
Data set [3] deals with VP64-E2c (6-finger) (artificial). The data set is described as follows: cell_activity. The following applies: HeLa luciferase.
Data set [4] concerns SKD-E2cJ15E2x (12-finger) (artificial). The data set is described as follows: cell_activity. The following applies: HeLa luciferase.
Data set [5] deals with E2cJ15E2x-VP64 (12-finger) (artificial). The data set can be described thus: cell_activity. The following applies: HeLa luciferase.
Data set [6] concerns E2c (6-finger) (artificial). The following applies: stated as Km; assay not described.

Consider “ACCGGAGAAACCAGGGGA (double strand) [E2X target]”, for which, in data set [1], the Kd (usually the concentration at which binding is half-saturated) worked out at 15 nM.
Regarding “E2p luciferase reporter (erbB2 promoter)”, the activity (fold repression) turned out to be 36 in data set [2] and 8 in data set [4]. The activity (fold activation) amounted to 78 in data set [3] and 45 in data set [5].
As for “GGGGCCGGAGCCGCAGTG (double strand) [E2c target]”, in data set [6], the Kd came out at 0.5 nM. That is a sub-nanomolar value.
